Tested on: CCCCCN
Test: Colorimetric hydrogen peroxide amine oxidase assay, purified mutant enzyme (N336S)
Format: biochemical, Aspergillus niger
Conditions: other: purified N336S mutant; 30.0 °C
Procedure: The wild-type enzyme was also purified by the same protocol and the two enzymes compared for substrate specificity and enantioselectivity.
The mutated gene was also sequenced and the sequence is shown in SEQ ID NO: 2. There was a single amino acid change from the wild-type enzyme with serine replacing asparagine at position 336.
LB medium (6×300 ml) containing ampicillin (100 μg·ml^−1) in 1 L baffled flasks was inoculated with a single colony of monoamine oxidase mutant from an LB agar plate. Cultures were incubated at 30° C. for 22 hours (OD600˜3.6) then harvested and washed with phosphate buffer (50 mM, pH 8) to yield a yellow-brown pellet (11.2 g).
The pellet was resuspended in Tris/HCl buffer (25 mM, pH 7.8, 30 ml) and sonicated on ice (30 s on, 30 s off for 10 minutes). The suspension was then centrifuged (20,000 rpm, 4° C.) until clear supernatant was obtained and the supernatant dialysed against Tris/HCl buffer (25 mM, pH 7.8). […]
The spectrophotometer was blanked against assay mixture and HRP. Enzyme was added and the absorbance at 500 nm measured at 3 s intervals for a 10 minute period.
The Km values were calculated using ‘KaleidaGraph for Windows’ (Synergy Software). For calculation of the kcat, the active enzyme concentration was determined by estimating the FAD content from the absorbance at 458 nm using an extinction coefficient of 11 mM^−1 cm^−1 (see ref 12).

Question: How did the Km turn out when “mutant A. niger monoamine oxidase (N336S) (Aspergillus niger; A300V/K348M/L304V/N336S/R450G)” was run?
Answer: 400 µM

Question: What about the kcat of the same substance?
Answer: 1.93 s⁻¹
